Measurements: article PMC13043311, “2′-O-Methyl-guanosine RNA fragments antagonize TLR7 and TLR8 to limit autoimmunity”

Target: T1, TLR7 F506L (Macaca mulatta, UniProt B3Y653 27-839, F506L)
T1 sequence: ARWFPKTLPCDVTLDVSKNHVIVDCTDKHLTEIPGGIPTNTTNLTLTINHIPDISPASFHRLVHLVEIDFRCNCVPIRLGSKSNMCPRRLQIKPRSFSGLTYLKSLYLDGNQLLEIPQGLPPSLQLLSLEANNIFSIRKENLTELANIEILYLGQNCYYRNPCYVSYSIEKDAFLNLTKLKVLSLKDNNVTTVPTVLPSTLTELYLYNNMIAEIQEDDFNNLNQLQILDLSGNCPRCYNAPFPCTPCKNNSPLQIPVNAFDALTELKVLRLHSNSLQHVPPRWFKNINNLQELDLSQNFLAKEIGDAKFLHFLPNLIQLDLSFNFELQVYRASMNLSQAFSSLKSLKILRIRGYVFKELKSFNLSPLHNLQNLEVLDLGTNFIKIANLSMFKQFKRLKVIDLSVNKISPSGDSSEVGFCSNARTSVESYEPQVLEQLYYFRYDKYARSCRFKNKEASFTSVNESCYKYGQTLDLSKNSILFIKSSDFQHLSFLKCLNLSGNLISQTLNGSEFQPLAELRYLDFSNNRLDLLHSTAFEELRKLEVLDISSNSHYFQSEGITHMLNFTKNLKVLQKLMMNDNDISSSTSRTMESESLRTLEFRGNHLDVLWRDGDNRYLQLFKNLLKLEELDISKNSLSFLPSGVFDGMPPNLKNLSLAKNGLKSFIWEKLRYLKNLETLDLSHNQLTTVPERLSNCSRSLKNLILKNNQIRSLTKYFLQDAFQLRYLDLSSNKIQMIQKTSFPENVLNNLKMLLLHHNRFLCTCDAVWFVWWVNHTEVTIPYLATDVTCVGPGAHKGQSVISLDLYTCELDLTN
Experiment: SPR; mean computed from runs 4±0.5, 5±0.6, 5±2; SPR with recombinant TLR7/TLR8; buffer, pH and temperature not in the material
Conditions: protein: recombinant; chain copies: 2; single-stranded

GUC (XNA, 2'-OMe G1, RNA U2 C3; phosphorothioate linkages) [mGrUrC PS]
Kd: 4.67 µM
